Article PMC8857273

Key:
[1] = test system: T1, His6-SUMO-MucR1 (Sinorhizobium fredii CCBAU45436 (SF45436)), ORF:2d010df8; test: EMSA; conditions: EMSA: 25 mM Tris pH 7.5, 100 mM KCl, 5 mM MgCl2, 5% glycerol, 0.05% dodecyl maltoside, 0.5 mg/mL BSA, 0.1 mg/mL sonicated salmon sperm DNA; room temperature …
T1 sequence: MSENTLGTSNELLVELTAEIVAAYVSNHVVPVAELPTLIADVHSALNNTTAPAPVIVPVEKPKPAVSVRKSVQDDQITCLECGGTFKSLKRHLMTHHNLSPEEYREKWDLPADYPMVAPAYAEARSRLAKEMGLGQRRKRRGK

[2] = test system: T2, His6-SUMO-MucR2 (Sinorhizobium fredii CCBAU45436 (SF45436)), ORF:a672ea6f; test: EMSA; conditions: EMSA: 25 mM Tris pH 7.5, 100 mM KCl, 5 mM MgCl2, 5% glycerol, 0.05% dodecyl maltoside, 0.5 mg/mL BSA, 0.1 mg/mL sonicated salmon sperm DNA; room temperature …
T2 sequence: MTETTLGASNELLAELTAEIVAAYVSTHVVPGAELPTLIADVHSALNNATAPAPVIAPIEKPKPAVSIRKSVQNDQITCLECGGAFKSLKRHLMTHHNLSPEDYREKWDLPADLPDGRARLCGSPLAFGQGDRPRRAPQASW

CATATTAGATTCGGAAGGACCGACGACGCCCCTCGATCGCTGCCAGTCCACTGACGATTGTTTTGAAGTGTTCAGCTTCCTGGAGATATAACTTCCAAAAGCCGAAATAAAGTTTGGATCATCTTTGATTTTATACAGTTCTCTGCTACTGCCAGAGCGTCTCCGACTTGGTGCATTTTAGCAACAGGCGTCATTCGAAAGTAAAGCTCACTCATCTATATTCGAGCGATTGGCGGCATTGAAGGCACAG (double strand) [visN promoter probe (250 bp)]
binding [1]: binds
binding [2]: no binding
